For this experiment, the target named is purified bovine calmodulin (bovine, UniProt P62157 1-149). The experiment is described as follows: ITC. A general note: Isothermal titration calorimetry measures the heat released or taken up as one component is titrated into another.

B1: FBXL2 (ITC with CaM, data not shown) (natural protein)
chain: MVFSNNDEGLINKKLPKELLLRIFSFLDIVTLCRCAQISKAWNILALDGSNWQRIDLFNFQTDVEGRVVENISKRCGGFLRKLSLRGCIGVGDSSLKTFAQNCRNIEHLNLNGCTKITDSTCYSLSRFCSKLKHLDLTSCVSITNSSLKGISEGCRNLEYLNLSWCDQITKDGIEALVRGCRGLKALLLRGCTQLEDEALKHIQNYCHELVSLNLQSCSRITDEGVVQICRGCHRLQALCLSGCSNLTDASLTALGLNCPRLQILEAARCSHLTDAGFTLLARNCHELEKMDLEECILITDSTLIQLSIHCPKLQALSLSHCELITDDGILHLSNSTCGHERLRVLELDNCLLITDVALEHLENCRGLERLELYDCQQVTRAGIKRMRAQLPHVKVHAYFAPVTPPTAVAGSGQRLCRCCVIL
B1 returned a Kd of 810 nM.

By Kd is commonly meant the free concentration of one partner at which half of the binding sites on the other are occupied at equilibrium, for simple one-to-one binding. Low values mean tighter binding, high ones weaker binding.

Source of the values: article PMC3266958 (Oncogene, 2011).
